Reference: the nanobody polyreactivity screen of Harvey et al. (2022)

Assay: yeast display, Sf9 membrane polyspecificity reagent, FACS + sequencing; frameworks hold sequencing errors
Summary of the method: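 Genes from sorted yeast were amplified by colony PCR, read by MiSeq 2 × 250 sequencing and filtered on CDR length. These cells carried a synthetic nanobody library in Saccharomyces cerevisiae BJ5465 and were sorted by FACS into low and high (top ~1%) gates on anti-HA and streptavidin fluorescence. Polyreactivity is labelled according to the gate of origin.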
In the case of “QVQLVESGGGLVQAGGSLRLSCSASGRIFPWNTMGWYRQAPGKERELVAGITSGGSTNYADSVKGRFTISRDNAKNTVYLQMNSLKPEDTAVYYCAARGYYWYISGVYEYEYWGQGTQVTVSS”, the “polyreactivity (PSR sort gate)” value is reported as “low polyreactivity”.
With “QVQLVESGGGLVQAGGSLRLSCAASGFIFGGNAMGWFRQAPGKERELVAAIRSGGSTYYADSVKGRFTISRDNAKNTVYLQMNSLKPEDTAVYYCAAELYDVYDLDYWGQGTQVTVSS” the “polyreactivity (PSR sort gate)” value was “low polyreactivity”.
In the case of “QVQLVESGGVLVQAGGSLRLSCAASGSTIPYNTMGWYRQAPRKERELVAAITRTSYADTVKGRFTISRDNAKNTVYLEMISLKREDTAVYYCAADKSFYYYLFGYDYWGQGTQVTVSS”, the “polyreactivity (PSR sort gate)” value is reported as “low polyreactivity”.
With “HVQLQESGGGLVQAGGSLRLSCAASGSISRNYDMGWYRQAPGKEREFVAGISGGAITYYADSVKGRFTISRDNAKNTVYLQMNSLKPEDTAVYYCAADTGVYQYHSYWGQGTQVTVSS” the “polyreactivity (PSR sort gate)” value was “low polyreactivity”.
In the case of “QVQHVESGGGLVQAGVSLRLSCAASGFTFGSNAMGRYRPAPGKERELVAAINYSGVRTYYADSVKGRFTISRDNAKNTVYLQMNSLKPEDTAVYYCAKQRSKPNSFDYWGQGTQVTVSS”, the “polyreactivity (PSR sort gate)” value is reported as “high polyreactivity”.
In the case of “QFQLVESGGGLVQAGGSLRLSCAASGRTFYAYAMGWYRQAHGKARELVAAIRGRTYYADSVKGRFTISSDNAKNTVYLQMNSLKPEDTAVYYCAARWVPREKLMFYWGQGTQVTVSW”, the “polyreactivity (PSR sort gate)” value is reported as “high polyreactivity”.
For “QVQLVESGGGLVQAGGSLRLSCAASGSIFYVNAMGWYRQAPGKDRELVAAISVRGGRTYYADSVKGRFTISRDNAKNTVYLQLNSLKPEDTAVYYCATRISTVGRYDYWGQGTQVTVSS”, the “polyreactivity (PSR sort gate)” value was “high polyreactivity”.
In the case of “QVQHVESGGGLVQAGGSLRLSCAASGRILIRNAMGWYRQAPGKERELVAAINRGGGSTYYADSVKGRFTISRDNAKNTVYLQMNSLKPEDTAVYYCAADRKAGYSRVDGDYWGQGTQVTVSS”, the “polyreactivity (PSR sort gate)” value is reported as “low polyreactivity”.
For “QVQLVESGGGLVQAGGSIRLSCAASGFNFRWYAMGWYRQAPGKERELVAAIRSGGSTNYADSVKGRFTIARDNAKNTVSLQMNSLKPEDRAVYYCAAERTSYYYSNDYWGQGTQVTVSS”, the “polyreactivity (PSR sort gate)” value was “high polyreactivity”.
With “QVQLVESGGGLVQAGGSLRLSCAASGRIFAHNAMGWYRQAPGKERELVAAINWSGGSTYYADSVTWRFTISRDNAKNTVYLQMNSLKPEDTAVYYCNNRYIHRSRAGYDYWGQGTQVTVSS” the “polyreactivity (PSR sort gate)” value was “low polyreactivity”.
In the case of “QVQLVESGGGLVQAGGSLRLSCAASGRTFRLYAMGWYRQAPGKERELVASISRSVGSTYYADSVKGRFTISRDNAKNTVYLQMNSLKPEDTAVYYCAARSYIPGGWDGAYYYWGQGTQVTVSS”, the “polyreactivity (PSR sort gate)” value is reported as “high polyreactivity”.
With “QVQLVESGAGLVQAGGRLRLRCDASGFIFRYYAMGWYRQAPGKERELVAAISESGASTYYADSVKGRFTISRDNAKNTVYLQMNSLKPEDTAVYYCAAKPRKSGPYYFYDLNYWGQGTQVTVSS” the “polyreactivity (PSR sort gate)” value was “high polyreactivity”.
With “QVHLVESGGCLVQAGGSLRLSCAASGRTFDFYAMGWYRQAPGKERELVATITSGTSTNYADSVKGRFTISRDNAKNTVYLQMYRLKPEDTAVYYCNAGGVYPRCTFLEQGYEMDYWGQGTQVTVSS” the “polyreactivity (PSR sort gate)” value was “low polyreactivity”.
For “QVQLVESGGGLVQAGGSLRLSCAASGLIFGGYTMGWYRQAPGKERELVAAIDSGGSTKYADSVKGRFTISRDNAKNTVYLQMNSLKPEDTAVYYCAARDYYAWRYRYHHEVSEFDYWGQGTHVTVSS”, the “polyreactivity (PSR sort gate)” value was “low polyreactivity”.
In the case of “QVQLVESGGGLVQAGGSLRLSCAASGNTFWFYRMGWYRQAPGKERELVAAITSGGSTDYADSVKGRFTISRDNAKNTVYLQMNSLKPEDTAVYYCAAEPVAYYGSSYGYWGQGTQVTVSS”, the “polyreactivity (PSR sort gate)” value is reported as “low polyreactivity”.
For “QVQLVESGGGLVQAGGSLRLSCAASGYTFSGYAMGWYRQAPGKERELVAAISKRGGSTYYADSVKGRFTISRDNAKNTVYLQMNSLKPEDTAVYYCAKRSGYRSHYGYWGQGTQVTVSS”, the “polyreactivity (PSR sort gate)” value was “high polyreactivity”.
In the case of “QVHLGESGGRLVQPGGSLRLSCAASGCTFCPYAMGWSRQAPGKARELVAAISNGGGPKYADSVKCRFTISRDNAKHTVYLQMNSLKPEDTAVYYCAKTLWTGRAWYDYWGQGTQVTVSS”, the “polyreactivity (PSR sort gate)” value is reported as “high polyreactivity”.
For “QVQLVESGGGLVQAGGSLRLSCAASGLIFRAYAMGWYRQAPGKERELVAAITRSGGSTYYADSVKGRFTISRDNAKNTVDLQMNSLKPEDTAVYYCATAQWVGYWDDYWGQGTQVTVSS”, the “polyreactivity (PSR sort gate)” value was “high polyreactivity”.
For “QVQLQESGGGLVQVGGSQRLSCAASGNIFYNYAMGRYRHAQGKEHEFDATINHGTSINYADSVKGRFTISRDNAKNTVYLQMNSLKPEDTAVYYCAADLSWTDNLFYWGQGTQVTVSS”, the “polyreactivity (PSR sort gate)” value was “low polyreactivity”.
With “QVQLVESGGGLVHAGGSLRLSCAASGITFEGNAMGWNRQAPGTERELVAAIRSSGTSTYYADSVKGRFTFSRDNEKKTVYLQMNSLKPEDTAVYYCNRARSSSRYDYWGEGTQVTVSS” the “polyreactivity (PSR sort gate)” value was “low polyreactivity”.
In the case of “QVQLVESGGGLVQAGGSLRLSCAASGYIFGFYAMGWYRQAPGKERELVSRITYSGTSTYYADSVKGRFTISRDNAKNTVYLQMNSLKPEDTAVYYCATDFVRHAGWRRYDYWGQGTQVTVSS”, the “polyreactivity (PSR sort gate)” value is reported as “low polyreactivity”.
In the case of “QVQLVESGGGLVQAGGSLRLSCAASGFTFFPYAMGWYRQAPGTERELVAAITETGGRTYYADSVKGRFTISRDNAKYTVYLQMNSLKPEDTAVYYCAKRGLHGYFVRGERGYWGQGTQVTVSS”, the “polyreactivity (PSR sort gate)” value is reported as “low polyreactivity”.
In the case of “EVQRVESGGGLVQAGCSLRLSCAASGINFSIYAMGWYRQAPGKERELVADITYSGGRTYYADSVKGRFTISRDNAKNTVYLQLYSLKPEDTAVYYCAAVGYGDYYWGQGTQVTVSS”, the “polyreactivity (PSR sort gate)” value is reported as “high polyreactivity”.
With “QVQLVESGGGLVQAGGSLRLSCAASGSIFENYAMGWYRQAPGKERELVAAISSSGDSTYYADSVKGRFTISRDNAKNTVYLQMNSLKPEDTAVYYCAAEISLSRSDRIESYDYWGQGTQVTVSS” the “polyreactivity (PSR sort gate)” value was “low polyreactivity”.
With “QVQLVESGGGLVQAGGSLRLSCAASGFTILRYAMGWDRQAPGTERELVAAIDWSGGSTYYADSVKGRFTISRDNAKNTVYLQMNSLKPEDTAVYYCNARTINVPSRFNYWGQGTQVTVSS” the “polyreactivity (PSR sort gate)” value was “low polyreactivity”.
In the case of “QVQLVESGGGLVQAGGSLRLNCAASGSILYLNAMGWYRQAPGKERELLAAITWSGGSTSYADSVKGRFTISRDYAKNTVSLQMNSLKPEDTAVYYCSAVRRGYGGVYYAGGYWGQGTQVTVSW”, the “polyreactivity (PSR sort gate)” value is reported as “low polyreactivity”.
For “QVQLVESGGGLVQAGGSLLFSCAASGHIFRTYAMGWYRQAPGKERELVAAINIGGTTDYADSVKGRFTISRDNAKNTVYLQMNSLKPEDTAVYYCNAYNRFWEYVYWGQGTQVTVSS”, the “polyreactivity (PSR sort gate)” value was “low polyreactivity”.
In the case of “QVQLVESGGGLVQAGGSLRLSCAASGSIFDYNAMGWYTQAPGKERELVAAITSGGSTNYADSVKGRFTISRDNAKNTVYLQMNSLKPEDTAVYYCAADHDYYPSNLDYWGQGTQVTVSS”, the “polyreactivity (PSR sort gate)” value is reported as “low polyreactivity”.
With “QVQLVESGGGLVQAGGSLRLSCAASGRIFPYYAKRWYRQAPGKERELVAAITTRGGSTYDADSVKGRFTISRDNAKNTVYLQMNSLKPEDTAVYYCAAVTFGRMEYCGQGTQVTVSS” the “polyreactivity (PSR sort gate)” value was “low polyreactivity”.
In the case of “QVQLVESGGGLVQAGGSLRLSCAASGYIFEVNTMGWYIQAPGKERELVAAITSGGTTYYADSVKGRFTISRDNAKNTVYLQMNSLKPDDTAVYYCAALWSRRRSRPRFDYWGQGTQVTVSS”, the “polyreactivity (PSR sort gate)” value is reported as “high polyreactivity”.
For “QVQLVESGGGLVQAGGSLRLSCAASGSILSLYTMGWYRQAPGKERELVAAITSRGTRTYYADSVKGRFTISRDYAKNTVYLQMNRLKPEDTAVYYCAAGSYYWGQGTQVTVSS”, the “polyreactivity (PSR sort gate)” value was “high polyreactivity”.
With “QVQLVESGGGLVEAGGSLRLSCAASGRIFLSYAMGWYRQAPGKERELVATITDRGGRTYYADSVKGRFTISRDNAKNTVYLQMNSLKAEDTAVDYCAAGLVYRGYRRDYWGQGTQVTVTS” the “polyreactivity (PSR sort gate)” value was “low polyreactivity”.
For “QVQLVESGGGLVQAGGSLRLSCAASGITFGVYAMGWYRQAPGKERELVAAISSGDSTYYADSVKGRFTISRDNAKNTVYLQMNSLKPEDTAVYYCNAYYGVFYWDAEYGYDYWGQGTQVTVSS”, the “polyreactivity (PSR sort gate)” value was “high polyreactivity”.
For “QVQLVESGGGLVQAGGSLRLSCAASGITFVAYAMGWYRQAPGKERELVAAISYNGGSTNYADSVKGRFTISRDNAKNTVYLQMNSLKPEDTAVYYCAADLAEFYPRFNYWGQGTQVTVSS”, the “polyreactivity (PSR sort gate)” value was “low polyreactivity”.
With “QVQLLESGGGLVQAGGSLRLSCAASGFTFYRYAMGWYRQAPGTERELVAVISRGGNTYYADSVKGRFTISRDNAKNTVYLQMNSLKPEDTAVYDCAVYYPRGVSGGRFTRYDYWGQGTQVTVSS” the “polyreactivity (PSR sort gate)” value was “high polyreactivity”.
With “QVQLVESGGGLVQAGGSLRLSCASSGFIFRHYAMGWYRQAPGKARELVAVINWSGSSTYYADSVKGRFTISRDNAKNTVYLQMNSLKPEDTAVYYCAVRSLRVDKYGYWGQGTQVTVSS” the “polyreactivity (PSR sort gate)” value was “high polyreactivity”.
For “QVQLVESGGGLVQAGGSHRLSCAASGRTFRYYTMGWYRQAPGKEREFVAAISSTGGTYYADSVKGRFTISRDNAKNTVYLQMNSLKPEDTAVYYCAKVYFWGALSPDKYDEDYWGQGTQVTVSS”, the “polyreactivity (PSR sort gate)” value was “low polyreactivity”.
In the case of “QVQLVESGGGLVQAGGSLRLSCAASGITFTVYTMGWYRQAPGKERELVAAITTSGTTTYYADSVKGRFTISRDNAKNTVYLQINSLKPEDTAVYYCAARQVWGEGVKSYYWGQGTQVTVSS”, the “polyreactivity (PSR sort gate)” value is reported as “high polyreactivity”.
In the case of “QVHLVESGGGLVQAGGSLRLSCAASGRTFETYAMGWYRQSPGKERELVAAITTSGGTTYYADSVKGRFTISRDNAKNTVYLQMKSLKPEDTAVYYCAADPWIEDTYGSKAYYYWGQGTQVTVSS”, the “polyreactivity (PSR sort gate)” value is reported as “low polyreactivity”.
In the case of “QVQLVESGGGLVQAGGSLRLSCAASGFTFSWYAMGWYRQAPGKERELVAAISRRGGSTYYADSVKGRFTISRDIAKNTVYLQMNSLKPEDTAVYYCNAALTYDYNYWGQGTQVTVSS”, the “polyreactivity (PSR sort gate)” value is reported as “high polyreactivity”.
In the case of “QVQLVESGGGLVQAGGSLRLSCAASGSTFAYYVMGWYRQAPGTERELVAAITSSGGRTYYADSVKGRFTISRDNAKNTVYLQMNSLKPEDTAVYYCAKVSQRGVDNSDYDYWGQGTQVTVSS”, the “polyreactivity (PSR sort gate)” value is reported as “high polyreactivity”.
In the case of “QVQLVESGGGLVQSGGSLRLSCAASGNTFTFYAMGWYRQAPGKERELVAVISQIADGCTYYADSVKGRFTISRDNSKNSVYLQMNSLKPEDTAVYYCIAQTWDEYWGQGTQVTVSS”, the “polyreactivity (PSR sort gate)” value is reported as “low polyreactivity”.
In the case of “QVQLVESGGGLVQAGGSLRLSCAASGRTFWDYMGWYRQAPGKERELVATITSSGGSTYYADSVKGRFTISRDNAKNTVYLQMNSLKPEDTAVYYCNADWYLWSTFAQGYGYWGQGTQVTVSS”, the “polyreactivity (PSR sort gate)” value is reported as “high polyreactivity”.
